# Results taken from the Human Domainome abundance scans (Beltran et al. 2025).
# ± gives the uncertainty stated by the source.
# B1: Ubiquitin-protein ligase residues 30 to 86; numbered along this chain, Q05086 (parent)
# chain: KHLIERYYHQLTEGCGNEACTNEFCASCPTFLRMDNNAAAIKALELYKINAKLCDPH
# Variants of: B1
# Assay: abundance fitness (aPCA) (normalised: wild type 0, dead -1); higher = more abundant; growth selection in yeast, the domain comes from the species named
# Settings: Homo sapiens
row,Variant,abundance fitness
1,KHLIERYYHQLTEGCGNEACTNEFCASCPTFLRMDNNAAAIKALEKYKINAKLCDPH [L46K],-0.754 ± 0.13
2,KHLIERYYHQLTEGCGNEACTNEFCASCPTFLRMDNNAAAIKALEMYKINAKLCDPH [L46M],-0.13 ± 0.1
3,KHLIERYYHQLTEGCGNEACTNEFCASCPTFLRMDNNAAAIKALENYKINAKLCDPH [L46N],-0.341 ± 0.15
4,KHLIERYYHQLTEGCGNEACTNEFCASCPTFLRMDNNAAAIKALEPYKINAKLCDPH [L46P],-0.528 ± 0.11
5,KHLIERYYHQLTEGCGNEACTNEFCASCPTFLRMDNNAAAIKALEQYKINAKLCDPH [L46Q],-0.17 ± 0.081
6,KHLIERYYHQLTEGCGNEACTNEFCASCPTFLRMDNNAAAIKALESYKINAKLCDPH [L46S],-0.095 ± 0.063
7,KHLIERYYHQLTEGCGNEACTNEFCASCPTFLRMDNNAAAIKALETYKINAKLCDPH [L46T],-0.278 ± 0.09
8,KHLIERYYHQLTEGCGNEACTNEFCASCPTFLRMDNNAAAIKALEVYKINAKLCDPH [L46V],-0.06 ± 0.066
9,KHLIERYYHQLTEGCGNEACTNEFCASCPTFLRMDNNAAAIKALEWYKINAKLCDPH [L46W],-0.401 ± 0.073
10,KHLIERYYHQLTEGCGNEACTNEFCASCPTFLRMDNNAAAIKALEYYKINAKLCDPH [L46Y],-0.312 ± 0.13
11,KHLIERYYHQLTEGCGNEACTNEFCASCPTFLRMDNNAAAIKALELAKINAKLCDPH [Y47A],0.088 ± 0.059
12,KHLIERYYHQLTEGCGNEACTNEFCASCPTFLRMDNNAAAIKALELCKINAKLCDPH [Y47C],0.031 ± 0.085
13,KHLIERYYHQLTEGCGNEACTNEFCASCPTFLRMDNNAAAIKALELFKINAKLCDPH [Y47F],0.108 ± 0.13
14,KHLIERYYHQLTEGCGNEACTNEFCASCPTFLRMDNNAAAIKALELGKINAKLCDPH [Y47G],0.008 ± 0.047
15,KHLIERYYHQLTEGCGNEACTNEFCASCPTFLRMDNNAAAIKALELHKINAKLCDPH [Y47H],0.088 ± 0.14
16,KHLIERYYHQLTEGCGNEACTNEFCASCPTFLRMDNNAAAIKALELIKINAKLCDPH [Y47I],-0.094 ± 0.11
17,KHLIERYYHQLTEGCGNEACTNEFCASCPTFLRMDNNAAAIKALELKKINAKLCDPH [Y47K],0.031 ± 0.12
18,KHLIERYYHQLTEGCGNEACTNEFCASCPTFLRMDNNAAAIKALELLKINAKLCDPH [Y47L],0.027 ± 0.056
19,KHLIERYYHQLTEGCGNEACTNEFCASCPTFLRMDNNAAAIKALELNKINAKLCDPH [Y47N],0.012 ± 0.14
20,KHLIERYYHQLTEGCGNEACTNEFCASCPTFLRMDNNAAAIKALELPKINAKLCDPH [Y47P],-0.05 ± 0.092
21,KHLIERYYHQLTEGCGNEACTNEFCASCPTFLRMDNNAAAIKALELQKINAKLCDPH [Y47Q],-0.03 ± 0.096
22,KHLIERYYHQLTEGCGNEACTNEFCASCPTFLRMDNNAAAIKALELRKINAKLCDPH [Y47R],0.05 ± 0.052
23,KHLIERYYHQLTEGCGNEACTNEFCASCPTFLRMDNNAAAIKALELSKINAKLCDPH [Y47S],0.084 ± 0.067

row,Variant,abundance fitness
1,KHLIERYYHQLTEGCGNEACTNEFCASCPTFLRMDNNAAAIKALELTKINAKLCDPH [Y47T],0.073 ± 0.1
2,KHLIERYYHQLTEGCGNEACTNEFCASCPTFLRMDNNAAAIKALELVKINAKLCDPH [Y47V],0.06 ± 0.053
3,KHLIERYYHQLTEGCGNEACTNEFCASCPTFLRMDNNAAAIKALELWKINAKLCDPH [Y47W],-0.085 ± 0.061
4,KHLIERYYHQLTEGCGNEACTNEFCASCPTFLRMDNNAAAIKALELYAINAKLCDPH [K48A],-0.17 ± 0.059
5,KHLIERYYHQLTEGCGNEACTNEFCASCPTFLRMDNNAAAIKALELYCINAKLCDPH [K48C],-0.427 ± 0.096
6,KHLIERYYHQLTEGCGNEACTNEFCASCPTFLRMDNNAAAIKALELYDINAKLCDPH [K48D],0.009 ± 0.1
7,KHLIERYYHQLTEGCGNEACTNEFCASCPTFLRMDNNAAAIKALELYEINAKLCDPH [K48E],-0.058 ± 0.078
8,KHLIERYYHQLTEGCGNEACTNEFCASCPTFLRMDNNAAAIKALELYFINAKLCDPH [K48F],-0.682 ± 0.13
9,KHLIERYYHQLTEGCGNEACTNEFCASCPTFLRMDNNAAAIKALELYGINAKLCDPH [K48G],-0.188 ± 0.05
10,KHLIERYYHQLTEGCGNEACTNEFCASCPTFLRMDNNAAAIKALELYHINAKLCDPH [K48H],-0.111 ± 0.15
11,KHLIERYYHQLTEGCGNEACTNEFCASCPTFLRMDNNAAAIKALELYIINAKLCDPH [K48I],-0.607 ± 0.18
12,KHLIERYYHQLTEGCGNEACTNEFCASCPTFLRMDNNAAAIKALELYLINAKLCDPH [K48L],-0.388 ± 0.061
13,KHLIERYYHQLTEGCGNEACTNEFCASCPTFLRMDNNAAAIKALELYMINAKLCDPH [K48M],-0.424 ± 0.08
14,KHLIERYYHQLTEGCGNEACTNEFCASCPTFLRMDNNAAAIKALELYNINAKLCDPH [K48N],0.012 ± 0.15
15,KHLIERYYHQLTEGCGNEACTNEFCASCPTFLRMDNNAAAIKALELYPINAKLCDPH [K48P],-0.222 ± 0.092
16,KHLIERYYHQLTEGCGNEACTNEFCASCPTFLRMDNNAAAIKALELYQINAKLCDPH [K48Q],-0.109 ± 0.1
17,KHLIERYYHQLTEGCGNEACTNEFCASCPTFLRMDNNAAAIKALELYRINAKLCDPH [K48R],-0.072 ± 0.052
18,KHLIERYYHQLTEGCGNEACTNEFCASCPTFLRMDNNAAAIKALELYSINAKLCDPH [K48S],-0.161 ± 0.067
19,KHLIERYYHQLTEGCGNEACTNEFCASCPTFLRMDNNAAAIKALELYTINAKLCDPH [K48T],-0.122 ± 0.079
20,KHLIERYYHQLTEGCGNEACTNEFCASCPTFLRMDNNAAAIKALELYVINAKLCDPH [K48V],-0.455 ± 0.06
21,KHLIERYYHQLTEGCGNEACTNEFCASCPTFLRMDNNAAAIKALELYWINAKLCDPH [K48W],-0.357 ± 0.085
22,KHLIERYYHQLTEGCGNEACTNEFCASCPTFLRMDNNAAAIKALELYYINAKLCDPH [K48Y],-0.438 ± 0.14
23,KHLIERYYHQLTEGCGNEACTNEFCASCPTFLRMDNNAAAIKALELYKLNAKLCDPH [I49L],-0.043 ± 0.41
